± gives the standard deviation.
Assay: collision cross section of modified peptide (TIMS, N2, iRT-aligned); higher = larger / more extended gas-phase ion
Method in brief: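 Collision cross section was derived from the Mason-Schamp equation. Each value averages 1–3 technical replicates of the most abundant feature per charge state, measured on a timsTOF Pro/HT in dda-PASEF mode (nitrogen, ~2.4 mbar) after a 120-min nanoflow C18 gradient at 60 °C. Synthetic peptide pools (~100 fmol/µL in 2% acetonitrile/0.1% formic acid, iRT standard spiked 1:40) were identified with MaxQuant, and 1/K0 was calibrated with three reference ions and aligned run-wise to the median iRT peptide deviation.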

[1] = charge state: 2, modification: Hydroxyproline
[2] = charge state: 3, modification: Hydroxyproline
[3] = charge state: 2, modification: Acetyl (K)
[4] = charge state: 3, modification: Acetyl (K)
[5] = charge state: 3, modification: Dimethyl (K)
[6] = charge state: 2, modification: Glutarylation
[7] = charge state: 3, modification: Glutarylation
[8] = charge state: 2, modification: GlyGly (K)
[9] = charge state: 3, modification: GlyGly (K)
[10] = charge state: 2, modification: Methyl (K)
[11] = charge state: 3, modification: Methyl (K)
[12] = charge state: 2, modification: Succinyl
[13] = charge state: 3, modification: Trimethyl (K)
[14] = charge state: 2, modification: hydroxyisobutyryl
[15] = charge state: 3, modification: hydroxyisobutyryl

## VPGALAAAKAAK [_VP(Hydroxyproline)GALAAAKAAK_]
[1]
  collision cross section: 368.8 ± 0.56 Å²
[2]
  collision cross section: 444.57 ± 2.8 Å²

## VPGVGLPGVYPGGVLPGAR [_VPGVGLPGVYPGGVLP(Hydroxyproline)GAR_]
[1]
  collision cross section: 432.24 ± 0.28 Å²
[2]
  collision cross section: 534.68 ± 3 Å²

## VPQAQPTKPALK [_VPQAQPT(HexNAc (ST))KPALK_]
Charge state: 2, modification: HexNAc (ST)
  collision cross section: 409.35 ± 0.62 Å²
Charge state: 3, modification: HexNAc (ST)
  collision cross section: 481.8 ± 0.17 Å²

## VPTTEKPTVTVNFR [_VPTTEK(Acetyl (K))PTVTVNFR_]
[3]
  collision cross section: 421.49 ± 1.9 Å²
[4]
  collision cross section: 507.52 ± 1 Å²

## VPTTEKPTVTVNFR [_VPTTEK(Butyryl)PTVTVNFR_]
Charge state: 2, modification: Butyryl
  collision cross section: 428.57 ± 0.24 Å²
Charge state: 3, modification: Butyryl
  collision cross section: 508.36 ± 2.4 Å²

## VPTTEKPTVTVNFR [_VPTTEK(Crotonyl)PTVTVNFR_]
Charge state: 2, modification: Crotonyl
  collision cross section: 427.61 ± 0.55 Å²
Charge state: 3, modification: Crotonyl
  collision cross section: 510.39 Å²

## VPTTEKPTVTVNFR [_VPTTEK(Dimethyl (K))PTVTVNFR_]
[5]
  collision cross section: 496.28 ± 1.7 Å²

## VPTTEKPTVTVNFR [_VPTTEK(Formyl)PTVTVNFR_]
Charge state: 2, modification: Formyl
  collision cross section: 425.05 ± 5 Å²
Charge state: 3, modification: Formyl
  collision cross section: 502.93 ± 1.3 Å²

## VPTTEKPTVTVNFR [_VPTTEK(Gluratylation)PTVTVNFR_]
[6]
  collision cross section: 428.25 ± 0.47 Å²
[7]
  collision cross section: 516.1 ± 2.5 Å²

## VPTTEKPTVTVNFR [_VPTTEK(GlyGly (K))PTVTVNFR_]
[8]
  collision cross section: 431.31 ± 0.85 Å²
[9]
  collision cross section: 523.98 ± 3.9 Å²

## VPTTEKPTVTVNFR [_VPTTEK(Malonyl)PTVTVNFR_]
Charge state: 2, modification: Malonyl
  collision cross section: 427.18 ± 3.1 Å²
Charge state: 3, modification: Malonyl
  collision cross section: 511.14 ± 0.89 Å²

## VPTTEKPTVTVNFR [_VPTTEK(Methyl (K))PTVTVNFR_]
[10]
  collision cross section: 426.88 Å²
[11]
  collision cross section: 510.49 ± 2 Å²

## VPTTEKPTVTVNFR [_VPTTEK(Succinyl)PTVTVNFR_]
[12]
  collision cross section: 427.05 ± 0.52 Å²
Charge state: 3, modification: Succinyl
  collision cross section: 513.15 ± 2.5 Å²

## VPTTEKPTVTVNFR [_VPTTEK(Trimethyl (K))PTVTVNFR_]
[13]
  collision cross section: 499.21 ± 1.6 Å²

## VPTTEKPTVTVNFR [_VPTTEK(hydroxyisobutyryl)PTVTVNFR_]
[14]
  collision cross section: 429.55 ± 0.83 Å²
[15]
  collision cross section: 512.54 ± 2 Å²

## VQFAPEK [_VQFAP(Hydroxyproline)EK_]
[1]
  collision cross section: 316.39 ± 1.9 Å²

## VQFAPEKPGPQPSAETTR [_VQFAPEKPGP(Hydroxyproline)QPSAETTR_]
[2]
  collision cross section: 515.21 ± 1.2 Å²

## VQGGALEDSQLVAGVAFKK [_VQGGALEDSQLVAGVAFK(Acetyl (K))K_]
[3]
  collision cross section: 468.5 Å²
[4]
  collision cross section: 554.41 Å²

## VQGGALEDSQLVAGVAFKK [_VQGGALEDSQLVAGVAFK(Dimethyl (K))K_]
[5]
  collision cross section: 554.94 ± 0.79 Å²

## VQGGALEDSQLVAGVAFKK [_VQGGALEDSQLVAGVAFK(Gluratylation)K_]
[6]
  collision cross section: 484.97 ± 2 Å²
[7]
  collision cross section: 564.26 Å²

## VQGGALEDSQLVAGVAFKK [_VQGGALEDSQLVAGVAFK(GlyGly (K))K_]
[8]
  collision cross section: 504.45 ± 0.061 Å²
[9]
  collision cross section: 565.73 ± 1.7 Å²

## VQGGALEDSQLVAGVAFKK [_VQGGALEDSQLVAGVAFK(Methyl (K))K_]
[10]
  collision cross section: 497.72 Å²
[11]
  collision cross section: 546.3 ± 1.2 Å²

## VQGGALEDSQLVAGVAFKK [_VQGGALEDSQLVAGVAFK(Succinyl)K_]
[12]
  collision cross section: 480.13 ± 1.2 Å²

## VQGGALEDSQLVAGVAFKK [_VQGGALEDSQLVAGVAFK(Trimethyl (K))K_]
Charge state: 2, modification: Trimethyl (K)
  collision cross section: 515.46 ± 1.1 Å²
[13]
  collision cross section: 564.46 ± 0.92 Å²

## VQGGALEDSQLVAGVAFKK [_VQGGALEDSQLVAGVAFK(hydroxyisobutyryl)K_]
[14]
  collision cross section: 481.48 Å²
[15]
  collision cross section: 565.17 ± 3.4 Å²

## VRFHNPR [_VR(Citrullination (R))FHNPR_]
Charge state: 2, modification: Citrullination (R)
  collision cross section: 325.95 ± 14 Å²
Charge state: 3, modification: Citrullination (R)
  collision cross section: 406.17 Å²

## VRFHNPR [_VR(Methyl (R))FHNPR_]
Charge state: 2, modification: Methyl (R)
  collision cross section: 340.13 ± 1.8 Å²
Charge state: 3, modification: Methyl (R)
  collision cross section: 406.89 ± 0.36 Å²
